Measurements published in doi:10.1101/2025.11.15.688598 (bioRxiv, 2025).

Experiments:
[1] = target: T1, Cy5-labeled proliferating cell nuclear antigen (PCNA) (human, UniProt P12004 1-261, Cy5 maleimide on cysteine(s), positions not stated); experiment: single-molecule two-colour fluorescence imaging (Cy3-Cy5 co-localisation, FRET, Cy3 photobleaching steps); Cy5-PCNA loaded by RFC on bi-biotinylated lambda DNA on the DNA skybridge; 1 μM PAF15-Cy3 in reaction buffer incubated 10 min, unbound washed out; images 10-15 min after the start of washing; 100 mM potassium glutamate; room temperature (approximately 22°C); conditions: both partners purified
[2] = target: T1, Cy5-labeled proliferating cell nuclear …; experiment: single-molecule two-colour fluorescence imaging (Cy3-Cy5 co-localisation, Cy3 photobleaching steps); Cy5-PCNA loaded by RFC on bi-biotinylated lambda DNA on the DNA skybridge; 1 μM PAF15-Cy3 in reaction buffer incubated 10 min, unbound washed out; images 10-15 min after the start of washing; 150 mM potassium glutamate; room temperature (approximately 22°C); conditions: both partners purified

T1 sequence (P12004 whole entry): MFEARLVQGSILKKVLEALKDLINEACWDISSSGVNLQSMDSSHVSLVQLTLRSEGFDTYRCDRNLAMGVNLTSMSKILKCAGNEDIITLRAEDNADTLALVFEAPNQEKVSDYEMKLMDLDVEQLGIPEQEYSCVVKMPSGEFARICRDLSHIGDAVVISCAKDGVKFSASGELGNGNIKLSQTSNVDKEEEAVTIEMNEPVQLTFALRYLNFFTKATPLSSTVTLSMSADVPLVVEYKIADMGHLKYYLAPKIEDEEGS

B1: Cy3-labeled PAF15 (Cys54Ser variant, Cy3 at Cys99) (natural protein, human, UniProt Q15004 2-111, looked up)
chain: VRTKADSVPGTYRKVVAARAPRKVLGSSTSATNSTSVSSRKAENKYAGGNPVSVRPTPKWQKGIGEFFRLSPKDSEKENQIPEEAGSSGLGKAKRKACPLQPDHTNDEKE
modifications: Cy3 on Cys99 (maleimide-thiol reaction)
**Q.** Which results are given for B1?
**A.** stoichiometry N [1]: 2 PAF15 per PCNA ring; stoichiometry N [2]: 1 PAF15 per PCNA ring
